# Assay: soluble on expression in E. coli; label from the status in PepcDB or PDB records
row,Sequence,soluble on expression in E. coli
1,MSPAQIIRTPHSFPPSFTGTSSSAENSHAQSPQQVLTRAFVASGELNAAFGRTSTASEQDFTSLLGTLQRELERKTLSFPDIAELANQLAEAAKGDQGGHWLGRDEQQTLKGMIDRCKSQLAHTHASDASYDPLAQVCENLKTARLHQSISQMTGEAHAKVRGVPDLLALIQLDPDVLAEKPVGMTSYVNFGSFICMAKARTAELSEDLRSDPNEVALLLHPHADTILELERLPDALAALTENCPDTPTRDDLRSLAKETGELLQQLRANDLLPRSEEVSSYQGETSVRSREVVEPKLTLCQAGGNGQGQLEASSARPESLRYAPTRAASSGSEARVPGQAVGGKIADDAQKVAGLYAEKKRTNWTQANGVAGKISHKIQSLLGMRDAGSRVQAFVAFMADGKGRPGATMLDLGDGWMRATRVIKGEAALIDFQCDSDGKVVDARHPGRFPVLPQGNEREAFKTVLQELKFRGAETLSKVPVYYVNRNTRGYVIPTHGYVVAGHPNRGRKSGAVLYGVGGDPKRGPVALDEKLLGHLVGRSDSKTSSKLSAPVKAAISALAGASFATREDFYDAYCAVRGDAVDPLERHNEISSIYRLLPLSTMEMWPKKADDYRVARPA,not soluble
2,MGSDKIHHHHHHMTREYGTGEIFHQMGDRVDALHYVLEGHVVAKAVTPEGVERYVLGFLPGTIFGQSPFFNRAPAETLFVSVGHTVAVALGRDYIYGEVAQRHPSLLLNLLESDAYRHRVFGRHIADATLRDLETRLCRFILHLVTEASDPVPVEQALTDAAAEVHPRTGDEGAEGPADCPARCHSGASALFSHPGLTHEDVARYLGLHRVTVSNLLGGLRRAGVLGQFNRKVIEVCDGAELVARAGMSGDGDRWP,not soluble
3,MSLARKNTATRQVIHIVGEGLTELFYFSHLKKILGYRYSISPRLFENNSIEKIEKKIKELLDEDVFVICVFDADVSRRSDAENKKMVSFKKKYENNPNVILCDSLQSIEYWFLLHFEDTCRHFQDSAATERALKQYLPTYDKTRKYLEKDKWVKEMLAGSKMDKACELAEKYKGRDSYSEIYKAIKKVSQNEGHHHHHH,soluble
4,MSKIDFHTHYLPTSYVEALKRHVPGDPDGWPTPEWTPQLTLNFMRDNDISYSILSLSSPHVNFGDKAETIRLVEAANDDGKSLAQQYPDQLGYLASLPIPYELDAVKTVQQALDQDGALGVTVPTNSRGLYFGSPVLERVYQELDARQAIVALHPNEPAILPKNVDIDLPVPLLGFFMDTTMTFINMLKYHFFEKYPNIKVIIPHAGAFLGIVDDEIAQYAQKVYQVDVYDVMHHVYFDVAGAVLPRQLPTLMSLAQPEHLLYGSDIPYTPLDGSRQLGHALATTDLLTNEQKQAIFYDNAHRLLTELEHHHHHH,not soluble
5,MAHHHHHHMADDILQCVHKEFKYVLISSDINDQIKELTFSGSERKFQGVLASYFRRIIFDEKGKNELKEVIKEKLKVSKENDNGGTERAGAEQEGDQNGQKSGQPNGAELNASAITPDLINNAVESSQTYQIIPLTIPTEKTNFFAVNCYIDDIGRIKKLPYNSRASRICSTEIYGDAFLSKTYDNEDFRRCDFTISEYEQFLQNPPKAENRYPPSDTMCVSG,soluble
6,MKKPVHDMRQHIIDVARSLMTNKGYTAVGLAEVLITAGVPKGSFYYYFKSKEEFGQALLEEYFSEYLGRVDALMARPGTGAERLLAYFMYWSETQGTDLPEGKCLVVKLGAEVCDLSEDMRCVLEVGTAKIIQRISACVEMGVSDGSIHPEGDHQGFAESLYQLWLGASLLVKVNKSTESFDKALNMTKRLLK,not soluble
7,MAHHHHHHMLSTTDGTTSTLSPERTAVIELHTSASYARDTVHRLREYCNSLEATRQQLRRRLSSVPNSHNVSAVALSRARSPSSLSHLHGQAPLPPLAAAAPTLSRPFFTSEYIDPEVDATLQDVDETTALETMIVLHEDGAGTITKRMIDGSQSCISSLAVHSSSPQSQRPAATTASLLAIHSPTPVAENGTSWARQYSPLALRRMKPQQLLSHYLRDTHNAMVIADEPRAHRHSSSLCTNASSSCCVPVVRLGKPMRSASASLWNASDVNMHFPHAVPLAPSLSESPPKQAPSTGRFVVPPATPLDESDAEQLPPQSLPPRPNNHKTTAGASVFVSLAGCTAPGQFAGLQTGVTSSTMGASSRVNSQRFAMKGLRESVSPKEHGTRSRSKSSRSSAGSEALVSGKQTTSSASAAAASAPLWDPTRHSLQSPSPVMLSTSTETSAASALVVSDRLGTPVTTSGCEVGVPGASNDSVHRPRPIGTSLITAVASTSFSPLSAPAPDSEEPQPPAETAVQPHIRSPLRRLHLEAHAVRCDHASSGNRRDLYTDSLHVSGSASPAPSTPRNSEENSGDRCKRSNTTAFLDEEKREASAVSTAGACRVSAQLPVLESDVVSPDGADSFHSKDAAVSPRRSSERTVNFLSPDQVEGSLLPQPQRPTSQRLISPSPPRGVAADSNEQNPRDGNTDLKAVSAESIPKDADIDSTSPRRHLVLPQHRSPVAPPRVVIISKDDESPSPARSSLSRSLHSLPSTLSDGHCDDASDDGDDEDGSLWYSEQF,not soluble
8,MSLKNLITKLENEERLNQEEANALWDLDLFTLGKYAHKKRTKLHGKKVYFNINRHINPTNICADTCKFCAFSAHRKNPNPYLMTHEEIMKIVDETVKRETKEVHIVSAHNKDTTWQWYLEIFKMIKEKYPNLHVKAMTAAEIDFLHRRFKMSYEEVIEKMLEYGVDSMPGGGAEIFDEEVRKKICHGKVSSENWLKIHKLWHEKSKQSNATMLFGHIEERHHRIDHMLRLRDLQDQTGGFNAFIPLVWQRDKSFIQTDKIMDSEEILKTIAISRLVLDNIKNIKAYWATMTLNLAMVAQEFGANDLDGTIEKESIQSAGGAKSAKGTSLKTFIDMIKTSNLIPVERDSLYNELKTYEGHHHHHH,not soluble
9,TSRNYLLLTPGPLTTSRTVKEAMLFDSCTWDDDYNIGVVEQIRQQLTALATASEGYTSVLLQGSGSYAVEAVLGSALGPQDKVLIVSNGAYGARMVEMAGLMGIAHHAYDCGEVARPDVQAIDAILNADPTISHIAMVHSETTTGMLNPIDEVGALAHRYGKTYIVDAMSSFGGIPMDIAALHIDYLISSANKCIQGVPGFAFVIAREQKLAACKGHSRSLSLDLYAQWRCMEDNHGKWRFTSPTHTVLAFAQALKELAKEGGVAARHQRYQQNQRSLVAGMRALGFNTLLDDELHSPIITAFYSPEDPQYRFSEFYRRLKEQGFVIYPGKVSQSDCFRIGNIGEVYAADITALLTAIRTAMYWTK,soluble
10,MTRSALKPFKNKRVMVTGRIQRVLFKNYLDRHSTFKPNVRILLKDVFVSGVSIDHLWLYETNKYYALAMELIHQRVKFSANVVPYYKINRNNNLFVQDYGIKRKGRLITEEAYNQNNQYQDKIYEKLPDIDFRLEDFYSKENLEHHHHHH,not soluble
11,MADLLNVLKDKLSGKNVKIVLPEGEDERVLTAATQLQATDYVTPIVLGDETKVQSLAQKLDLDISNIELINPATSELKAELVQSFVERRKGKATEEQAQELLNNVNYFGTMLVYAGKADGLVSGAAHSTGDTVRPALQIIKTKPGVSRTSGIFFMIKGDEQYIFGDCAINPELDSQGLAEIAVESAKSALSFGMDPKVAMLSFSTKGSAKSDDVTKVQEAVKLAQQKAEEEKLEAIIDGEFQFDAAIVPGVAEKKAPGAKLQGDANVFVFPSLEAGNIGYKIAQRLGGYDAVGPVLQGLNSPVNDLSRGCSIEDVYNLSIITAAQALQ,not soluble
12,MSLDPEDVYDGGYGSKHSPVQLRIGNGGAGQSGLVKELADAFIKSKVDSGSAPFKVAWYKSDTTVTINYLKDGIVDVGITYSPVAERISIKHGISESPSYYAFRDHFMLIGPPSNPAKLSGDSDIADMFSKMHDAAEAGNTKPPVRFLSRYDKSATNIKEAELWLSIGQVPWATAYSTWYHQYITFPIQALTAAILLREYTITDYGTYLSIPRGLRDQMVIYKKGTNDADDPLLNPAHLLVGARAKNAEMAKEFAKWLVSKEGGQKVIEGFKKDGQQLYSPAPYRHEGHHHHHH,soluble
13,MSTKSIATSSTASSSSSHHQEHTVTELIMFFTSEEPPEPEPFSRSTEKSGIRTSKVITRTITISAETKLKMDLLEEQRREKRVKLEIEKSRIRAENLQRMQEISSEPKTRGSKRSLMRRAAKRTKGRISSLLIRDSSVDSGSITDKALKDKKRGLSLEWEVKDQGRFAESFSDSRLMEMFQHPSGMPIEPDVMMEGYLYKRSSNAFKTWNRRWFQIKDKQLLYSHRSTDLEPATIMEENLRICLVRPAPSNIDRIGCFELVTPTRIHLLQADSESLCQDWMRALQRTILALHEGDSVDVASTSPRNKTTSMSSGVTLTSANAISPLSNAMDVTKGRSVSDPASTYTSANTSSISTAAGFSSSTTAFEQVRRVPGNEVCADCGSPAPKWVSINLGVVLCIECSGAHRSLGVQTSKVRSLCMDSIDNELRDVLLALGNRQVNEIFLAHLPPADSIVPPQINEKSARPAREAWIKAKYVERRFAVAEDTRARSSATNRQEHLKHKTSIGGNSSSNGVNRSSSYADVQDAESGGLLDADPWSADLSVPVPTASKRLSACGSDTNLDAIGSSSIDTKTVEWDSVKEACECGDLLALMTAYAQGFDLNALHNGTTALHIATRNGQTAAVEFLLLNGAKINMLDEKLNTPLHLAAKEGHTLPVCQLLKRGADSNLANVDSKTPLDIAMECTHADIVTLFRVTIMRNDFNADFNNPMDETVEAVISDIARRAATEKEQKKTESLKSTSDI,not soluble
14,MSDTADSLSARGIPKSELIEDVESWLTKEKLSIEEAEVVLREKYGKYKYVESSMLAQKVRMSEKIPEFENSLSIIDTLIAKRAADESFETTFLLSDDVYTKATVQKPEKVSIWLGANVMVEYDLENARKLLDKNRGSVQKVVDELTNELSYIKDQITTTEVNMSHIVNFGVNKRRAALAVNNGAK,not soluble
15,MLKPLGDRVVIELVQAEEKTASGIVLPDTAKEKPQEGKVIAVGTGRVLENGERVALEVAAGDLIIFSKYAGTEVKYEGTDYLILRESDILAVIG,not soluble
16,GPGSMERAATQSQSIYSNANTNSSNVNTYGNTVSSYLSNNSPNAVMYGGGNSGNGGAPSSTSVATVYASPTQASPSQAIRQQAQGAAQQNMSQSQTSTSFNAYGGGAASGSGSGFFYSTPSAQAPGAQTMYSANPSAAAMFPMRGGSTSMTPAQPTPTQMLTPQANAAAAAAAVWTNAAANINAGSKLFVGQVPAVCTEDQLRPLFAQFGTLLEIKIMREPNGRSKGSAWVRYELEESAQRAITALNEKHVVPPQTNPLRVQFAAPSTNRIPQPLSALGSIMPPSAVMQPQPQPNYATAATYATPQGYAGTTTAYMQGQYATSPNLMAVRASPQQQAAVQSASGKIEYLRSNHPGSLIYSTASPTAVDAMQQQQQQQSPQQQQVVYTTGGQMRAGVMYTPDAFAMTNQMAAAPQQPHQWCS,soluble
17,MSLQIKSIKAYHVVQPFVDGPYRMSKGRQADAFDAVIVAITADSGLTGWGEMAPLGNFYSAAFPAGARAGVPEIAPHLIGHDPRGLASIGRLMDTVFKGHPYIKSALDMACWDLAARAAGVPLVTMLGGRESDMAETYRVVTHGTLDQMAALAKRIIAEGCRRLQVKVGGNVHDDIERVTTVASAVPKGTVIFCDANAGWTPYQARQFADATRGIDYTFEQPCTTIEENMSVRRMLDKPMVLDESVTSLEEMLEIHRLGAADGLTLKISRLGGVTRTRQIRDVAVDLGFMITVEDTGGAEIDTAAMAHLSLSTPQERRLHAIAFHEWVTVRTAFNAPPVTGSHMGIPDGPGLGIDVDPSLLGKPFFEIGEGHHHHHH,soluble
18,MGSDKIHHHHHHMLWSMTDGATPATPPTAAPEERFPHVNPLVYRFVVDVTFLPVLLTGMHIDVHGREHVPPPGTPLVVAANHQSALDPFLIARALPPGRYLQFMAKRELFVPVIGDIIRAGGSFPVDRESNDVGAIRTSLRILKAGGTVGIFPQGTRGGQELHGGAALIAARGRAPILPAGISHDGKRWVVRFGEPLPARGGIKANTEELGRRLQVLAQPVGRHL,not soluble

# Reference: the DeepSol protein solubility set
